Molecular target: TAP-tagged wild-type Infected Cell Polypeptide 4 (ICP4) of HSV-1 strain KOS (herpes simplex virus type 1 (HSV-1), strain KOS) (UniProt P08392)
Assay: pull-down; streptavidin affinity purification of TAP-tagged ICP4 from nuclear extracts of infected Vero cells (3 or 6 hpi), independent samples; biotin eluates analysed by Western blot, in part quantified with a LI-COR Odyssey imager and normalised to ICP4; untagged virus as control

UniProt P08392, sequence (P08392 whole entry): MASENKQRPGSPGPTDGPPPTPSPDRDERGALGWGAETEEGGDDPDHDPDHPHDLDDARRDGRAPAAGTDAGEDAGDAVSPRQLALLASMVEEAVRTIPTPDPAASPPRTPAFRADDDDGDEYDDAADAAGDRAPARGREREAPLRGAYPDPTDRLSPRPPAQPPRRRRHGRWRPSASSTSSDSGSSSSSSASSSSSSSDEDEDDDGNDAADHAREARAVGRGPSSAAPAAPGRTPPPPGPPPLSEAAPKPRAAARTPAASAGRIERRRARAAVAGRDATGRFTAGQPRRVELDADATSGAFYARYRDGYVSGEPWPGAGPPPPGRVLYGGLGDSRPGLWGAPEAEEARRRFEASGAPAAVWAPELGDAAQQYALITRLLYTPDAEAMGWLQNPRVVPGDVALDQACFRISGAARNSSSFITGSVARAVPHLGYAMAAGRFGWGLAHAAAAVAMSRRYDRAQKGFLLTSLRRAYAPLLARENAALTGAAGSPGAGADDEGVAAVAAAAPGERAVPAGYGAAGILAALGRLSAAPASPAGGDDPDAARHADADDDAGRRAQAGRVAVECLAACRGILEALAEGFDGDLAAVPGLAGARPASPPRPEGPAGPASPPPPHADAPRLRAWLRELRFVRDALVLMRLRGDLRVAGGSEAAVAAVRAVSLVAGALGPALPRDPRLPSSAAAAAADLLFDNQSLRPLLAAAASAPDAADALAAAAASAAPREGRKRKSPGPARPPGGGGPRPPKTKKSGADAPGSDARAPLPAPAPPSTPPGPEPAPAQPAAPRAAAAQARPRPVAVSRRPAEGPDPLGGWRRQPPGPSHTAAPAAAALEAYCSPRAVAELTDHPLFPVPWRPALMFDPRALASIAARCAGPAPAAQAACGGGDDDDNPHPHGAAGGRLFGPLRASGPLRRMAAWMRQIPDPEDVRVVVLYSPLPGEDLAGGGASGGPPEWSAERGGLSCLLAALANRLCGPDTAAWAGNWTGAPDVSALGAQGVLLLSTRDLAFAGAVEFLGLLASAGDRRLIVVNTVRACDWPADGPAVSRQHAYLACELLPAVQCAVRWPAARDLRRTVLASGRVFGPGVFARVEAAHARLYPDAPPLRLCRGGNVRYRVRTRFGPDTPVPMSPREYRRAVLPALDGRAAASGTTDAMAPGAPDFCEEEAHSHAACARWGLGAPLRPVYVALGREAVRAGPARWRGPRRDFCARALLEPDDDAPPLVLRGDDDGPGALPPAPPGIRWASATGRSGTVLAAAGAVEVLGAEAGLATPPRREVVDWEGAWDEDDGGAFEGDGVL

Substance MED1 (natural protein) has a fold increase of the amount co-purified at 6 hpi against 3 hpi (normalised to ICP4) of 3 fold.
